In general, tissue uptake refers to the share of the injected amount in each gram of the tissue. The IC50 is the concentration that inhibits the measured activity by half.

Results on 9 molecules are retold here after US11167048B2, “Dual targeting ligand for cancer diagnosis and treatment” (priority 2018, dated 2021).

The subject of one series is prostate tumors. To be noted: newly diagnosed PCa patients; cited from earlier work.
Series [1] is described as follows: in vivo. Further details: species or system CF-1 normal mice. To be noted: CF-1, mouse, iv, total radioactivity.
The target in another series is T1, PSMA (Homo sapiens, UniProt Q04609).
T1 construct: endogenous in cells; host or cells: LNCaP human prostate cancer cells, homogenized cell membranes
Kind of series: NAALADase assay with LNCaP homogenized cell membranes and [N-acetyl aspartyl ^3H-glutamate]. To be noted: LNCaP homogenized cell membranes, read-out: IC50 LNCaP cells. In kind it is binding. As to the method:
(§1) (NAAG) as the radioligands. […] After incubation, the reaction medium was aspirated and the cells were rinsed three times with cold media. Cell-associated radioactivity was determined using a Packard Riastar gamma counter. […] The enzymatic reaction was stopped by addition of 50 μL of cold sodium phosphate buffer (0.1 M, pH=7.4). […] Scintillation cocktail was added to each fraction and the amount of radioactivity in each was determined by liquid scintillation counting.
(§2) (NAAG) as the radioligands. […] After incubation, the reaction medium was aspirated and the cells were rinsed three times with cold media. Cell-associated radioactivity was determined using a Packard Riastar gamma counter. […] For the PSMA-positive assay, the binding affinity was measured using the N-acetylated-α-linked acidic dipeptidase (NAALADase) assay. […] The enzymatic reaction was stopped by addition of 50 μL of cold sodium phosphate buffer (0.1 M, pH=7.4). […] Columns were pre-equilibrated with 0.2 M HCl prior to loading of the reaction mixture. […] Scintillation cocktail was added to each fraction and the amount of radioactivity in each was determined by liquid scintillation counting.

Series [2] in a line: in vivo. More on the design: species or system ICR-SCID male mice. To be noted: male, ICR-SCID, mouse, iv, total radioactivity, Brain uptake.
A short description of series [3]: in vivo. Further details: species or system ICR-SCID male mice. To be noted: male, ICR-SCID, mouse, iv, total radioactivity, Pancreas uptake.
For the next series, the system named is metastatic disease. To be noted: ^68Ga-labeled agent; cited from earlier work.
The target of the next series is T2, GRPR (Homo sapiens, UniProt P30550).
T2 construct: endogenous in cells; host or cells: PC-3 human prostate cancer cells (intact cells)
Kind of series: Competitive displacement binding assay in GRPR-positive PC-3 cells with [^125I-(Tyr4)-BBN]. To be noted: radioligand [^125I-(Tyr4)-BBN], 1 h, 37° C., read-out: IC50 PC3 cells. How it is done:
as §1, §2

T1 sequence (Q04609 whole entry): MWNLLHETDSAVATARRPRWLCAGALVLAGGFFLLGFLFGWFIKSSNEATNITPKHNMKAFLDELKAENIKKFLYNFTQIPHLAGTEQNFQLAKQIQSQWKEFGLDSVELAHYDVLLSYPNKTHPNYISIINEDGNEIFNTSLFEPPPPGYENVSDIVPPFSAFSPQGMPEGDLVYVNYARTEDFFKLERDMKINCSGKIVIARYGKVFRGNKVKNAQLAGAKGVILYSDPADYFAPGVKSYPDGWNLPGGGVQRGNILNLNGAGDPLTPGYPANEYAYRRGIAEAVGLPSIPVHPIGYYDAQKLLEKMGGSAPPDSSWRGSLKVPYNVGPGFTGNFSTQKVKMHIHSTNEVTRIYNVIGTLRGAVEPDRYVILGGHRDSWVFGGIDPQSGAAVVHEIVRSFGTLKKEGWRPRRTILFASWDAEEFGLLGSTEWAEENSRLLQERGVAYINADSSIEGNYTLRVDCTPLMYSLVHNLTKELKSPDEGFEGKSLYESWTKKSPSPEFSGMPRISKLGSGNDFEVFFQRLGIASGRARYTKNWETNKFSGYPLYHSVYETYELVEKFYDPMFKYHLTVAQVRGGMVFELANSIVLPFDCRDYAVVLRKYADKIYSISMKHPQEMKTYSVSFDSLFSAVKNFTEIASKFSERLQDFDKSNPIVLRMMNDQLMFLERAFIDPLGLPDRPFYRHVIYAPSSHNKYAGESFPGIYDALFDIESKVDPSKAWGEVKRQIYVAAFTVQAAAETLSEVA
T2 sequence (P30550 whole entry): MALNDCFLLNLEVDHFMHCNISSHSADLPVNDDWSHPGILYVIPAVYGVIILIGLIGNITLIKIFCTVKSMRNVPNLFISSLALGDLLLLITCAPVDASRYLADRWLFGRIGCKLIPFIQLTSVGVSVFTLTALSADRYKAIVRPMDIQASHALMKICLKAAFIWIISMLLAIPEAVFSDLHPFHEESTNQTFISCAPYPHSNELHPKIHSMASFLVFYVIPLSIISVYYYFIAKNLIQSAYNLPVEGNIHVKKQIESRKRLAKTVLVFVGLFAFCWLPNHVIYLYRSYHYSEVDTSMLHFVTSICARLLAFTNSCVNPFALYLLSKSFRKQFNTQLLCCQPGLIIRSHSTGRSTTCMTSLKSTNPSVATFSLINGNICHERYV

Take ^64Cu-CB-TE2A-AR06: the “High contrast imaging of prostate tumors, fraction of men” value with prostate tumors is given as “¾”.
As for `CC(C)C[C@H](NC(=O)C[C@H](O)[C@H](CC(C)C)NC(=O)[C@H](Cc1c[nH]cn1)NC(=O)CNC(=O)[C@@H](NC(=O)[C@H](C)NC(=O)[C@H](Cc1c[nH]c2ccccc12)NC(=O)[C@H](CCC(N)=O)NC(=O)[C@@H](Cc1ccccc1)NC(=O)CCCCNC(=O)[C@H](CCCCNC(=O)CN1CCN(CC(=O)O)CCN(CC(=O)O)CCN(CC(=O)O)CC1)NC(=O)CCCCCNC(=O)CC[C@H](NC(=O)N[C@@H](CCC(=O)O)C(=O)O)C(=O)O)C(C)C)C(N)=O` [DUPA-6-Ahx-Lys(^111In-DOTA)-5-Ava-RM2, metal not drawn], the tissue uptake at 1 h in “in vivo [1]” (Bone uptake) came out at 0.09 ± 0.06 %ID/g; in “in vivo [1]” (Brain uptake), 0.02 ± 0.01 %ID/g; in “in vivo [1]” (Heart uptake), 0.11 ± 0.06 %ID/g; in the series “in vivo [1]” (Kidneys uptake) it was 4.92 ± 0.84 %ID/g; in the series “in vivo [1]” (L. Intestine uptake), 0.12 ± 0.05 %ID/g; in “in vivo [1]” (Liver uptake), 0.15 ± 0.05 %ID/g. Also, the tissue uptake at 1 h in “in vivo [1]” (Lung uptake) was found to be 0.68 ± 0.25 %ID/g; in “in vivo [1]” (Muscle uptake) it was 0.06 ± 0.04 %ID/g; in the series “in vivo [1]” (Pancreas uptake), 1.02 ± 0.37 %ID/g; in the series “in vivo [1]” (S. Intestine uptake), 0.26 ± 0.09 %ID/g; in the series “in vivo [1]” (Spleen uptake) it was 0.13 ± 0.05 %ID/g; in “in vivo [1]” (Stomach uptake) it was 0.23 ± 0.18 %ID/g.
On to `CC(C)C[C@H](NC(=O)C[C@H](O)[C@H](CC(C)C)NC(=O)[C@H](Cc1c[nH]cn1)NC(=O)CNC(=O)[C@@H](NC(=O)[C@H](C)NC(=O)[C@H](Cc1c[nH]c2ccccc12)NC(=O)[C@H](CCC(N)=O)NC(=O)[C@@H](Cc1ccccc1)NC(=O)CCCCCNC(=O)[C@H](CCCCNC(=O)CN1CCN(CC(=O)O)CCN(CC(=O)O)CCN(CC(=O)O)CC1)NC(=O)CCCCCNC(=O)CC[C@H](NC(=O)N[C@@H](CCC(=O)O)C(=O)O)C(=O)O)C(C)C)C(N)=O` [[DUPA-6-Ahx-[^natLu-DOTA]-6-Ahx-RM2]] [metal not drawn], for which, at PSMA, the half-maximal inhibitory concentration (IC50) is 13.9 ± 2.53 nM.
On the same count and under the same terms, the value for `CC(C)C[C@H](NC(=O)C[C@H](O)[C@H](CC(C)C)NC(=O)[C@H](Cc1c[nH]cn1)NC(=O)CNC(=O)[C@@H](NC(=O)[C@H](C)NC(=O)[C@H](Cc1c[nH]c2ccccc12)NC(=O)[C@H](CCC(N)=O)NC(=O)[C@@H](Cc1ccccc1)NC(=O)CCCCCCCNC(=O)[C@H](CCCCNC(=O)CN1CCN(CC(=O)O)CCN(CC(=O)O)CCN(CC(=O)O)CC1)NC(=O)CCCCCNC(=O)CC[C@H](NC(=O)N[C@@H](CCC(=O)O)C(=O)O)C(=O)O)C(C)C)C(N)=O` [[DUPA-6-Ahx-[^natLu-DOTA]-8-Aoc-RM2]] [metal not drawn] was 16 ± 2.79 nM.
`CC(C)C[C@H](NC(=O)C[C@H](O)[C@H](CC(C)C)NC(=O)[C@H](Cc1c[nH]cn1)NC(=O)CNC(=O)[C@@H](NC(=O)[C@H](C)NC(=O)[C@H](Cc1c[nH]c2ccccc12)NC(=O)[C@H](CCC(N)=O)NC(=O)[C@@H](Cc1ccccc1)NC(=O)CCCCCCCNC(=O)[C@H](CCCCNC(=O)CN1CCN(CC(=O)O)CCN(CC(=O)O)CCN(CC(=O)O)CC1)NC(=O)CCCCCNC(=O)CC[C@H](NC(=O)N[C@@H](CCC(=O)O)C(=O)O)C(=O)O)C(C)C)C(N)=O` [DUPA-6-Ahx-Lys(^111In-DOTA)-8-Aoc-RM2, metal not drawn]: in the series “in vivo [2]”, the tissue uptake at 24 h stood at 0.01 %ID/g. In addition, the tissue uptake at 1 h worked out at 0.14 ± 0.04 %ID/g in “in vivo [1]” (Bone uptake); 0.02 %ID/g in the series “in vivo [1]” (Brain uptake); 0.2 ± 0.14 %ID/g in the series “in vivo [1]” (Heart uptake); 1.37 ± 0.31 %ID/g in the series “in vivo [1]” (Kidneys uptake); 0.49 ± 0.25 %ID/g in the series “in vivo [1]” (L. Intestine uptake); 0.38 ± 0.04 %ID/g in the series “in vivo [1]” (Liver uptake). Also, the tissue uptake at 1 h was found to be 0.37 ± 0.03 %ID/g in “in vivo [1]” (Lung uptake); 0.1 ± 0.01 %ID/g in the series “in vivo [1]” (Muscle uptake); 5.45 ± 0.47 %ID/g in the series “in vivo [1]” (Pancreas uptake); 0.49 ± 0.34 %ID/g in “in vivo [1]” (Spleen uptake); 1.73 ± 2.49 %ID/g in “in vivo [1]” (Stomach uptake). Also, the tissue uptake at 4 h in “in vivo [3]” was 0.58 ± 0.1 %ID/g.
On to `CC(C)C[C@H](NC(=O)C[C@H](O)[C@H](CC(C)C)NC(=O)[C@H](Cc1c[nH]cn1)NC(=O)CNC(=O)[C@@H](NC(=O)[C@H](C)NC(=O)[C@H](Cc1c[nH]c2ccccc12)NC(=O)[C@H](CCC(N)=O)NC(=O)[C@@H](Cc1ccccc1)NC(=O)c1ccc(NC(=O)[C@H](CCCCNC(=O)CN2CCN(CC(=O)O)CCN(CC(=O)O)CCN(CC(=O)O)CC2)NC(=O)CCCCCNC(=O)CC[C@H](NC(=O)N[C@@H](CCC(=O)O)C(=O)O)C(=O)O)cc1)C(C)C)C(N)=O` [DUPA-6-Ahx-Lys(^111In-DOTA)-AMBA-RM2, metal not drawn], for which the tissue uptake at 1 h in “in vivo [1]” (Bone uptake) stood at 0.06 ± 0.04 %ID/g; in the series “in vivo [1]” (Brain uptake) it was 0.02 ± 0.01 %ID/g; in “in vivo [1]” (Heart uptake), 0.12 ± 0.05 %ID/g; in the series “in vivo [1]” (Kidneys uptake), 1.37 ± 0.31 %ID/g; in “in vivo [1]” (L. Intestine uptake), 0.09 ± 0.02 %ID/g; in “in vivo [1]” (Liver uptake), 0.28 ± 0.04 %ID/g. Moreover, the tissue uptake at 1 h in “in vivo [1]” (Lung uptake) worked out at 1.01 ± 1.15 %ID/g; in “in vivo [1]” (Muscle uptake), 0.08 ± 0.02 %ID/g; in “in vivo [1]” (Pancreas uptake) it was 0.24 ± 0.06 %ID/g; in “in vivo [1]” (S. Intestine uptake), 0.2 ± 0.04 %ID/g; in “in vivo [1]” (Spleen uptake), 0.15 ± 0.04 %ID/g; in “in vivo [1]” (Stomach uptake), 0.15 ± 0.06 %ID/g.
As for “DOTA-p-aminomethylaniline-diglycolic acid-DPhe-Gln-Trp-Ala-Val-Gly-His-Leu-NHEt (FQWAVGHL; DOTA-p-aminomethylaniline-diglycolic acid N-term, C-terminal NHEt; (1)..(1) D-phenylalanine; (1)..(1) DOTA-p-aminomethylaniline-diglycolic acid linked to D-Phenylalanine) [SB3]”, the “Metastatic disease detected, fraction of patients” value in the series on metastatic disease was 5/9.
Regarding `CC(C)C[C@H](NC(=O)C[C@H](O)[C@H](CC(C)C)NC(=O)[C@H](Cc1c[nH]cn1)NC(=O)CNC(=O)[C@@H](NC(=O)[C@H](C)NC(=O)[C@H](Cc1c[nH]c2ccccc12)NC(=O)[C@H](CCC(N)=O)NC(=O)[C@@H](Cc1ccccc1)NC(=O)CCCCCNC(=O)[C@H](CCCCNC(=O)CN1CCN(CC(=O)O)CCN(CC(=O)O)CCN(CC(=O)O)CC1)NC(=O)CCCCCNC(=O)CC[C@H](NC(=O)N[C@@H](CCC(=O)O)C(=O)O)C(=O)O)C(C)C)C(N)=O` [DUPA-6-Ahx-Lys(^111In-DOTA)-6-Ahx-RM2, metal not drawn], the tissue uptake at 1 h was determined as 0.08 ± 0.06 %ID/g in “in vivo [1]” (Bone uptake); 0.03 ± 0.04 %ID/g in “in vivo [1]” (Brain uptake); 0.16 ± 0.22 %ID/g in “in vivo [1]” (Heart uptake); 2.84 ± 0.64 %ID/g in “in vivo [1]” (Kidneys uptake); 0.14 ± 0.12 %ID/g in the series “in vivo [1]” (L. Intestine uptake); 0.23 ± 0.14 %ID/g in the series “in vivo [1]” (Liver uptake). In addition, the tissue uptake at 1 h was 0.86 ± 0.7 %ID/g in “in vivo [1]” (Lung uptake); 0.07 ± 0.07 %ID/g in “in vivo [1]” (Muscle uptake); 0.19 ± 0.19 %ID/g in the series “in vivo [1]” (Pancreas uptake); 0.22 ± 0.13 %ID/g in the series “in vivo [1]” (S. Intestine uptake); 0.12 ± 0.13 %ID/g in “in vivo [1]” (Spleen uptake); 0.14 ± 0.11 %ID/g in “in vivo [1]” (Stomach uptake).
Regarding [DUPA-6-Ahx-Lys(M-DOTA)-6-Ahx-RM2], the half-maximal inhibitory concentration (IC50) at PSMA was determined as 9.3 ± 2.32 nM; on GRPR, 3.99 ± 1.8 nM.
